Test results taken from patent US20250340623A1.

B1: ACI-7089-4409F1-Ab1 (antibody, V domains shown)
VH: DVQLQESGPGLVKPSQSLSLTCSVTGYSITRGYYWNWIRQFPGNKLEWMGYISYDGSNNYNPSLRNRISITRDTSKNQFFLKLKSVTTEDTATYFCARGDSNWGQGTTLTVSA
VL: not shown
B2: ACI-7089-4418F6-Ab1 (antibody, V domains shown)
VH: QVQLQQSGAELARPGASVKVSCKASGYTFTSSGISWLKHRTGQGLEWIGDIYPRSGNTYYNEKFKDKATLTADKSSSTAYMELRSLTSEDSAVYFCSSGNYWGQGTTLTVSS
VL: DIVITQDDLSNPVTSGESVSISCRSSKSLLYKDGKTYLNWFLQRPGQSPQLLIYLMSTRASGVSDRFSGSGSGTDFTLEISRVKAEDVGVYYCQQLLEYPLTFGAGTKLELK
B3: ACI-7067-1108H1-Ab1 (antibody, V domains shown)
VH: EVKLVESGGGLVQPGGSMKLSCTASGFTFSDAWMNWVRQSPEKGLEWVAEIRNKAHNHATNYAESVKGRFTISGDDSKSSVYLQMNNLRAEDTGIYYCTIYSFWGQGTLVTVSA
VL: SIVMTQTPKFLLVSAGDRVTITCKASQSVTNYVAWYHQKPGQSPKLLIYSASNRYSGVPDRFTGSGYGTDFTFTINTVQTEDLAVYFCQQDYRIPYTFGGGTKLEIK
B4: ACI-8033-19A2-Ab1 (antibody, V domains shown)
VH: EVQLVESGGGLVQPKGSLKLSCAASGFSFNTYAMNWVRQAPGKGLEWVARIRSKSNNYATYYVDSVKDRFTISRDDSESMLYLQMNNLKTEDTALYYCVSESAYWGQGTLVTVSA
VL: DVVMTQTPLSLPVSLGDQASISCRSSQSLVHSNGNTYLYWYLQKPGQSPKLLIYKVSNRLSGVPDRFSGSGSGTDFTLKISRVEAEDLGVYFCSQSTHVPFTFGSGTKLEIK
B5: ACI-8033-1A12-Ab1 (antibody, V domains shown)
VH: QVHLKQSGADLVRPGASVKLSCKASGYSFTDFYINWVKQTPGQGLEWIARIYPGNNNTFYNEKFKGKATLSAEKSSTTAYMQLSSLTSEDSAVYFCVVGYYGAWGQGTTLTVSS
VL: DVVMTQTPLSLPVSLGDQASISCRSSQSLVHSNGNTHLHWYLQKPGQSPKLLIYKVSNRFSGVPDRFSGSGSGTDFTLKISRVEAEDLGFYFCSQSTHVPWTFGGGTKLEIK
B6: ACI-8033-4F3-Ab1 (antibody, V domains shown)
VH: EVQLQQSGPELVKPGASVKISCKASGYTFTDYYMNWVKQSHGKSLEWIGDINPNTGTNSYNQKFKGRASLTVDKFSSAAYMELRSLTSEDSAVYYCARTGYGDPISSYYYALDYWGQGTSVTVSS
VL: DIVMSQSPSSLAVSAGEKVTMSCKSSQSLLNSRTRKNYLAWYQQKPGQSPKLLIYWASTRESGVPDRFTGSGSGTDFTLTISSVQAEDLAVYYCKQSYNLWTFGGGTKLEIK
B7: ACI-8033-17F5-Ab1 (antibody, V domains shown)
VH: EVQLQQSGPELVKPGASVKISCKASGYTFTDYFMNWVKQSHGKSLEWIGDINPNIDVTNYNQKFKGKATLTVDKSSSTAYMELRSLTSEDSAVYYCARGRDYAMDFWGQGTSVTVSS
VL: DIVMSQSPSSLAVSAGEKVTMSCKSSQSLLNSRTRKNYLAWYQQKPGQSPKLLIYWASTRESGVPDRFTGSGSGTDFTLTISSVQAEDLAVYYCKQSYDLWTFGGGTKLEIK
B8: ACI-8033-18C11-Ab1 (antibody, V domains shown)
VH: QVQLQQPGAELVKPGASVKMSCKAAGYTFSSYWITWVRQRPGQGLDWIGDIYPGGGVTNYNEKFKTKATLTVDTSSSTAYMQLSSLTSEDSAVYYCATAQTTFAYWGQGTLVTVSA
VL: DVLMTQTPLSLPVSLGDQASISCRSSQNIVHNNGNTYLEWYLQKPGQSPKLLIYKVSNRFSGVPDRFSGSGSGTDFTLKISRVEAEDLGVYYCFQGSHVPRTFGGGTKLEIK
B9: ACI-8033-18D12-Ab1 (antibody, V domains shown)
VH: QVQLQQPGAELVKPGASVKMSCKASGYTFTSYWITWVRQRPGQGLDWIGDIYPGGGVTNYNEKFKTKATLTVDTSSSTAYMHLSSLTSEDSAVYFCATAQTTFAHWGQGTLVTVSA
VL: DVLMTQTPLSLPVSLGDQASISCRSSQNIAHNNGNTYLEWYLQKPGQSPKLLIYKVSNRFSGVPDRFSGSGSGTDFTLKISRVEAEDLGVYYCFQGSHVPRTFGGGTKLEIK
B10: ACI-8033-1F8-Ab1 (antibody, V domains shown)
VH: DVQLQESGPGLVKPSQSLSLTCSVTGYSITSGFYWNWIRQFPGNKLEWMGYISYDGSNNYNPSLKNRISIIRDTSKNQFFLKLKSVTSEDTATYYCVRGDVDWGQGTTLTVSS
VL: not shown
B11: ACI-7067-1111B12-Ab2 (antibody, V domains shown)
VH: QVQLLQPGTALVMPGASVKLSCKASGYTFTTYWMHWVKQRPGQGLEWIGNINPINGGSNYNEKFKSKASLTVDKSSSTAYMQLSSLTSEDSAVYYCVIAMDYWGQGTSVTVSS
VL: DIQMTQSPSSLSASLGERVSLTCRASQDIGISLNWFQQEPDGTIKRLIYATSSLDSGVPKRFSGNRSGSDYSLTISSLESEDFADYYCLQFASSPLTFGAGTKLELK
B12: ACI-7067-1112H8-Ab2 (antibody, V domains shown)
VH: EVKLEESGGGLVQPGGSMKLSCAASGFTFTDAWMNWVRQSPEKGLEWIAEIRNKAHNYATYYAESVKGRFDISGDDSKSSVYLQMNNLRVEDTGIYYCTIYSYWGPGTLVTVSA
VL: SIVMTQTPKFLLMSPGDRVTMTCTASQSVSNYVAWYQQKPGQSPKLLIYSASNRFTGVPDRFTGSGYGTDFTFTINTVQTEDMAVYFCQQDYTSPYTFGGGTKLEIK
B13: ACI-7067-1108B11-Ab2 (antibody, V domains shown)
VH: EVQLVESGGGLVQPKGSLKLSCAASGFTFNTYAMHWVRQAPGKGLEWVARIRSKGSNYATNYADSVKDRFTISRDDSQSMLYLQMNNLKTEDTAMYYCVRGHGSSYFSYWGQGTLVTVSA
VL: QIVLTQSPAIMSASPGERITMTCSANSSVTYMHWYQQKSGTSPKRWIYDTSNLASGVPARFSGSGSGTSYSLTISSMEAEDAATYYCQQWKSHPPTFGAGTKLELK
B14: ACI-7067-1113D10-Ab1 (antibody, V domains shown)
VH: EVQLVESGGGLVQPKGSLKLSCAASGFTFNTYALHWVRQAPGKGLEWVARIRSKSSNYATYYADSVKDRFTISRDDSQSMLYLQMNNLKTEDTGMYYCVRGGVSPFDYWGQGTTLTVSS
VL: QIVLTQSPAIMSASPGEKVTMTCSASSSVSYMHWYQQKSGTSPKRWIYDTSKLASGVPARFSGSGSGTSYSLTISSMEAEDSATYYCQQWSNNPPTFGGGTKLEIK
B15: ACI-7067-1116F2-Ab1 (antibody, V domains shown)
VH: DVQLQESGPGFVKPSQSLSLTCSVTGYSITRGFYWNWIRQFPGNKLEWMGYISDDGNSNYNPSLKNRISITRDTFKNQVFLRLNSVTTEDTATYYCTRGDLLWGQGTTLTVSS
VL: not shown
B16: ACI-7079-2501B11-Ab3 (antibody, V domains shown)
VH: QVQLQQSGPELVKPGASVKISCKASGYAFSSFWMNWMKQRPGKGLEWIGRIYPGDGDAHYNGEFKGRATLTADKSSSTAYMQLSSLTSEDSAVYFCARKGDFYGSNYDYWGQGTTLTVSS
VL: QAVVTQESALTTSPGETVTLTCRSSTGAVTTSNYANWVQEKPDHLFTGLIGGTNNRAPGVPARFSGSLIGDKAALTITGAQTEDEAIYFCALWYSNHLVFGGGTRLTVL
B17: ACI-7079-2501D10-Ab1 (antibody, V domains shown)
VH: EVQLVESGGGLVQPKGSLKVSCAASGFTFKTYAMHWVRQAPGKGLEWVARIRSENSNFAKYYADSVKDRFTISRDDSQSMLYLQMNNLKTEDTAMYYCVRGYNGSSLDYWGQGTTLTVSS
VL: QIVLTQSPAIMSAFPGERVTMTCSASSSVNYMHWYQQKSGTSPKRWIYDTSKLASGVPARFSGGGSGTSYSLTISNMEAEDAATYYCQQWRSNPPTFGGGTKLEIK
B18: ACI-7079-2501G2-Ab2 (antibody, V domains shown)
VH: EVQLVESGGGLVQPKGSLKLSCAASGFNFNTYAMNWVRQAPGKGLEWVARIRTKSNNFATYYAHSVKDRFTISRDDSESMLYLQMNNLKTEDTAMYYCVRQGLAYYAMDYWGQGTSVTVSS
VL: DVLMTQTPLSLPVSLGDQVSISCRSSQTIVHSNGNTYLEWYLQKPGQSPKLLIYKVSNRFSGVPDRFSGSGSGTDFTLKISRVEAEDLGVYYCFQGSQGPLTFGAGTKLELK
B19: ACI-7079-2503C6-Ab1 (antibody, V domains shown)
VH: DVQLQESGPGLVKPSQSLSLTCSVTGYSITSGYYWNWIRLFPGNKLEWLGYINYDGSNNFNPSLKNRISITRDTSKNQFFLKLNSVTSEDTATYFCLRGDWDWGQGTLVTVSA
VL: not shown

Experiments:
Settings in all cases: remark: other sources report otherwise
[1] = target: alpha-synuclein fibrils, P37840; assay: SPR, captured mAb
[2] = target: monomeric alpha-synuclein, P37840; assay: SPR, captured mAb
[3] = target: monomeric alpha-synuclein, P37840; assay: SPR, captured mAb; alpha-synuclein monomers
[4] = target: alpha-synuclein fibrils, P37840; assay: SPR, captured mAb; alpha-synuclein fibrils

Kd [1]	koff [1]	kon [1]	Kd [2]	koff [2]	kon [2]	Kd [3]	Kd [4]	Binder
8.8 nM	0.00587 s⁻¹	667000 M⁻¹ s⁻¹	6.4 nM	0.000992 s⁻¹	154000 M⁻¹ s⁻¹	–	–	B1
0.04 nM	1.14e-05 s⁻¹	272000 M⁻¹ s⁻¹	0.1 nM	9.25e-06 s⁻¹	81800 M⁻¹ s⁻¹	–	–	B2
14.3 nM	0.00118 s⁻¹	271000 M⁻¹ s⁻¹	4.4 nM	0.000565 s⁻¹	131000 M⁻¹ s⁻¹	–	–	B3
6.7 nM	0.000119 s⁻¹	17700 M⁻¹ s⁻¹	6.2 nM	0.0828 s⁻¹	1.33e+07 M⁻¹ s⁻¹	–	–	B4
9.8 nM	6.53e-05 s⁻¹	6660 M⁻¹ s⁻¹	31.9 nM	0.0327 s⁻¹	1.02e+06 M⁻¹ s⁻¹	–	–	B5
0.05 nM	2.24e-07 s⁻¹	4500 M⁻¹ s⁻¹	1.7 nM	0.00016 s⁻¹	97000 M⁻¹ s⁻¹	–	–	B6
8.7 nM	0.00012 s⁻¹	13700 M⁻¹ s⁻¹	2.4 nM	0.000232 s⁻¹	96600 M⁻¹ s⁻¹	–	–	B7
30.4 nM	0.000251 s⁻¹	8270 M⁻¹ s⁻¹	1.8 nM	0.000263 s⁻¹	143000 M⁻¹ s⁻¹	–	–	B8
–	–	–	–	0.26 s⁻¹	8.25e+07 M⁻¹ s⁻¹	3.2 nM	–	B9
1010 nM	0.000996 s⁻¹	983 M⁻¹ s⁻¹	24.3 nM	0.000738 s⁻¹	30400 M⁻¹ s⁻¹	–	–	B10
39.2 nM	0.00101 s⁻¹	26300 M⁻¹ s⁻¹	8.1 nM	0.0014 s⁻¹	172000 M⁻¹ s⁻¹	–	–	B11
18.7 nM	0.00245 s⁻¹	285000 M⁻¹ s⁻¹	6.3 nM	0.00158 s⁻¹	250000 M⁻¹ s⁻¹	–	–	B12
18.6 nM	0.00205 s⁻¹	251000 M⁻¹ s⁻¹	8.1 nM	0.00154 s⁻¹	191000 M⁻¹ s⁻¹	–	–	B13
–	4.16e-07 s⁻¹	6940 M⁻¹ s⁻¹	–	–	–	–	0.06 nM	B14
55.1 nM	0.000458 s⁻¹	8300 M⁻¹ s⁻¹	4.9 nM	0.000232 s⁻¹	47000 M⁻¹ s⁻¹	–	–	B15
31.8 nM	0.000347 s⁻¹	10900 M⁻¹ s⁻¹	2.4 nM	0.000335 s⁻¹	141000 M⁻¹ s⁻¹	–	–	B16
24.7 nM	0.000427 s⁻¹	17300 M⁻¹ s⁻¹	1.6 nM	0.00043 s⁻¹	264000 M⁻¹ s⁻¹	–	–	B17
27.8 nM	0.000528 s⁻¹	19000 M⁻¹ s⁻¹	2.9 nM	0.00084 s⁻¹	291000 M⁻¹ s⁻¹	–	–	B18
–	–	–	–	0.00012 s⁻¹	40500 M⁻¹ s⁻¹	3 nM	–	B19
